Measured values published in IntAct's records for PubMed 31515488.

B1: F-box/WD repeat-containing protein 1A (Homo sapiens), Q9Y297 (parent)
chain: MDPAEAVLQEKALKFMCSMPRSLWLGCSSLADSMPSLRCLYNPGTGALTAFQNSSEREDCNNGEPPRKIIPEKNSLRQTYNSCARLCLNQETVCLASTAMKTENCVAKTKLANGTSSMIVPKQRKLSASYEKEKELCVKYFEQWSESDQVEFVEHLISQMCHYQHGHINSYLKPMLQRDFITALPARGLDHIAENILSYLDAKSLCAAELVCKEWYRVTSDGMLWKKLIERMVRTDSLWRGLAERRGWGQYLFKNKPPDGNAPPNSFYRALYPKIIQDIETIESNWRCGRHSLQRIHCRSETSKGVYCLQYDDQKIVSGLRDNTIKIWDKNTLECKRILTGHTGSVLCLQYDERVIITGSSDSTVRVWDVNTGEMLNTLIHHCEAVLHLRFNNGMMVTCSKDRSIAVWDMASPTDITLRRVLVGHRAAVNVVDFDDKYIVSASGDRTIKVWNTSTCEFVRTLNGHKRGIACLQYRDRLVVSGSSDNTIRLWDIECGACLRVLEGHEELVRCIRFDNKRIVSGAYDGKIKVWDLVAALDPRAPAGTLCLRTLVEHSGRVFRLQFDEFQIVSSSHDDTILIWDFLNDPAAQAEPPRSPSRTYTYISR
partner: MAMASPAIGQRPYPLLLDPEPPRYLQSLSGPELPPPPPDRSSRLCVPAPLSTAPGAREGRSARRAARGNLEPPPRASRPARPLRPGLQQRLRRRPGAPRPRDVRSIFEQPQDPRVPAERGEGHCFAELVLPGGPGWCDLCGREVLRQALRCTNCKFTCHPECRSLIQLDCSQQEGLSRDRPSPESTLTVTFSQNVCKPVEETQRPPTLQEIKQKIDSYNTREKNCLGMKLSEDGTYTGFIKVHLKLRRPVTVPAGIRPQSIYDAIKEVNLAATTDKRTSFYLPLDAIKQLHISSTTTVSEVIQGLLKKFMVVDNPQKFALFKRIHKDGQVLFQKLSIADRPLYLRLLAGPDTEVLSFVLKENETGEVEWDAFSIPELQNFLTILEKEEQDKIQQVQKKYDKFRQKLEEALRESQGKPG
B2: Sodium channel modifier 1 (Homo sapiens), Q9BWG6 (parent)
chain: MSFKREGDDWSQLNVLKKRRVGDLLASYIPEDEALMLRDGRFACAICPHRPVLDTLAMLTAHRAGKKHLSSLQLFYGKKQPGKERKQNPKHQNELRREETKAEAPLLTQTRLITQSALHRAPHYNSCCRRKYRPEAPGPSVSLSPMPPSEVKLQSGKISREPEPAAGPQAEESATVSAPAPMSPTRRRALDHYLTLRSSGWIPDGRGRWVKDENVEFDSDEEEPPDLPLD
partner: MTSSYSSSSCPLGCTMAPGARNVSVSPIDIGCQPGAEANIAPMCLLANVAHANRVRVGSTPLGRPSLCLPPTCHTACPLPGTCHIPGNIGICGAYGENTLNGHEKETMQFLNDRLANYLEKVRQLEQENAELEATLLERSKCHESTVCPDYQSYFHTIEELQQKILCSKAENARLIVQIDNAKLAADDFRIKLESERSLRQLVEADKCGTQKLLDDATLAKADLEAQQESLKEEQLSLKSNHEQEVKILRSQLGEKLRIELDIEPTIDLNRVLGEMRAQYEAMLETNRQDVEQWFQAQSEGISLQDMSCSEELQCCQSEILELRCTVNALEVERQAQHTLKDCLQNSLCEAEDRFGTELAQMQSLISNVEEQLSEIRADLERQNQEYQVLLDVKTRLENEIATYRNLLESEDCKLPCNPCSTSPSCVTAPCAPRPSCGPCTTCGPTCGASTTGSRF
B3: 26S proteasome non-ATPase regulatory subunit 9 (Homo sapiens), O00233 (parent)
chain: MSDEEARQSGGSSQAGVVTVSDVQELMRRKEEIEAQIKANYDVLESQKGIGMNEPLVDCEGYPRSDVDLYQVRTARHNIICLQNDHKAVMKQVEEALHQLHARDKEKQARDMAEAHKEAMSRKLGQSESQGPPRAFAKVNSISPGSPASIAGLQVDDEIVEFGSVNTQNFQSLHNIGSVVQHSEGKPLNVTVIRRGEKHQLRLVPTRWAGKGLLGCNIIPLQR

Variants of: B1
Details: with rasf5_human RASSF5, Q8WWW0

Variant	effect of a mutation on the interaction
T414A	disrupting interaction strength

Variants of: B2
Details: with krt38_human KRT38, O76015

Variant	effect of a mutation on the interaction
A174V	with no effect

Variants of: B3
Details: with cc136_human CCDC136, Q96JN2
Sequence of cc136_human CCDC136, Q96JN2 (Q96JN2 whole entry): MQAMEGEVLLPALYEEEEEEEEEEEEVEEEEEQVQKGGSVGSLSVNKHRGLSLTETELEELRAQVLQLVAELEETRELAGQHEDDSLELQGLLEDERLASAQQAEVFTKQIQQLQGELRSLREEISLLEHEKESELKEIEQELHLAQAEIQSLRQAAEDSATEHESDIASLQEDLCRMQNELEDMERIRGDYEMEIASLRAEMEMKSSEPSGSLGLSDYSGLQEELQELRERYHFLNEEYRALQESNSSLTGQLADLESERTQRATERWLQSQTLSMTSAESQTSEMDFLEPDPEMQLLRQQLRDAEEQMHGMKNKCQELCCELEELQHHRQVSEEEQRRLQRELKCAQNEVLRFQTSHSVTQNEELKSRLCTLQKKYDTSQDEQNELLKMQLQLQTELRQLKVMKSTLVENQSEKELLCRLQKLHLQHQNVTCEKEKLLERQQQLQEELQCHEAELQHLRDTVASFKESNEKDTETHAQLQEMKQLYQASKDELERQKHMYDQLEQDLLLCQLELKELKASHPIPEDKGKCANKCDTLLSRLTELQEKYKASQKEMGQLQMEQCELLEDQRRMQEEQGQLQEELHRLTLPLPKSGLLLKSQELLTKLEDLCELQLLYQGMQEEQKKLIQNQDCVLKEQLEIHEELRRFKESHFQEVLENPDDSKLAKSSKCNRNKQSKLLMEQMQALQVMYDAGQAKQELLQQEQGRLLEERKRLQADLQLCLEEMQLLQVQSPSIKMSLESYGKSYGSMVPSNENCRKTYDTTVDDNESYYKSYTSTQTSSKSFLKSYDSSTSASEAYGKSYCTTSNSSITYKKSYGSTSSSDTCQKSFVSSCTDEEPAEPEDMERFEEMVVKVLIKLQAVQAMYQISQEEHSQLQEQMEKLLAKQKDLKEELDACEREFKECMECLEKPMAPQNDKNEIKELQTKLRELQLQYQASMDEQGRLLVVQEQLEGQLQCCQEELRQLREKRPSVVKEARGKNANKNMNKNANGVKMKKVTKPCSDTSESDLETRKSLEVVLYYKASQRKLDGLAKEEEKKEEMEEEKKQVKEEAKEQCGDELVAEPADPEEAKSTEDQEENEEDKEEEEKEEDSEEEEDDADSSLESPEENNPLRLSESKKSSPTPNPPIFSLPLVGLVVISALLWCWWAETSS

Variant	effect of a mutation on the interaction
V17A	with no effect
R110W	with no effect

Variants of: B3
Details: with prs6a_human PSMC3, P17980
Sequence of prs6a_human PSMC3, P17980 (P17980 whole entry): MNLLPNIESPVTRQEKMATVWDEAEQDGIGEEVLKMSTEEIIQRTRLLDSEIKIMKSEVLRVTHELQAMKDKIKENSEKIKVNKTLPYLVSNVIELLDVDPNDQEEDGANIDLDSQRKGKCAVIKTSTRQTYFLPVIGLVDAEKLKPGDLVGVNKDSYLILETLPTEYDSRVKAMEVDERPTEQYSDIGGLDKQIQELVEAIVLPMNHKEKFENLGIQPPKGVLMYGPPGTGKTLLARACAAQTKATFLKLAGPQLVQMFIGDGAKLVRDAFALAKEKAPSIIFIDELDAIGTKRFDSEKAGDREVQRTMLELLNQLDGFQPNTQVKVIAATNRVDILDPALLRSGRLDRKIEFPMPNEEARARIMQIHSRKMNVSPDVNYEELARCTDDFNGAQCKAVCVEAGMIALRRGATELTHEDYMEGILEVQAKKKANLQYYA

Variant	effect of a mutation on the interaction
R134W	with no effect
R110W	with no effect
E197G	with no effect

Variants of: B3
Details: with prs10_human PSMC6, P62333
Sequence of prs10_human PSMC6, P62333 (P62333 whole entry): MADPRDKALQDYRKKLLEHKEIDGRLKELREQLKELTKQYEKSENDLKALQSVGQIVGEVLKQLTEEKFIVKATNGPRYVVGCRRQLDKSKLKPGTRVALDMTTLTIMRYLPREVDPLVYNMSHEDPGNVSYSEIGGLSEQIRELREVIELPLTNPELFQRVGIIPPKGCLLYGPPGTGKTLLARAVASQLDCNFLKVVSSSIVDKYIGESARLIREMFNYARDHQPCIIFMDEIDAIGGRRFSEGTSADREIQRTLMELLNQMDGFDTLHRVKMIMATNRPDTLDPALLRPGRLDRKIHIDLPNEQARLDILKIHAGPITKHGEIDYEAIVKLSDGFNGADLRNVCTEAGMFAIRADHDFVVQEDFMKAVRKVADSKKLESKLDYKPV

Variant	effect of a mutation on the interaction
R134W	with no effect
R110W	with no effect

Variants of: B3
Details: with spn90_human NCKIPSD

Variant	effect of a mutation on the interaction
R134W	with no effect
R110W	with no effect
E197G	with no effect
